± gives the standard deviation of the averaged measurements.
System: ATP
Experiment: switch fluorescence ratio, 500 uM ATP over buffer (Cy3 cluster intensity, sum of 5 cycles each) (fold (ratio)); higher = stronger signal-on switching upon ATP binding; sequences stand for … in TCGTCGGCAGCGTCAGATGTGTATAAGAGACAGTTTTTTTTTTTTTTTTTTTTTTTTT…TC
Settings: aptamer strand: ATP DNA aptamer (quencher-CACCTGGGGGAGTATTGCGGAGGAAGG + anchor), 100 nM annealed; ATP concentration: 500 uM
Outline: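 For every switch-domain sequence, the fluorescence ratio is the mean of per-cluster values, each being summed target-cycle Cy3 intensity over summed buffer-cycle Cy3 intensity. Clusters outside 100-1000 RFU were excluded. On a modified Illumina MiSeq flow-cell, the Cy3-labelled switching-strand clusters were annealed to 100 nM quencher-labelled ATP aptamer, imaged in selection buffer and then after 15 min with 500 uM ATP at 22 °C. Five such cycles were run, with NaOH stripping and re-annealing between them.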
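Note: ATP exposure 15 min at 22 °C before imaging.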

Row | Sequence | switch fluorescence ratio
1 | TCTCATTCAG | 1.06 ± 0.14
2 | TCTCGGAAAA | 0.996 ± 0.021
3 | TCTCGTCAGC | 1.087 ± 0.0041
4 | TCTCGTGGGA | 1.01 ± 0.03
5 | TCTCGTTTT | 0.979 ± 0.025
6 | TCTCTGTCGA | 1.4 ± 0.11
7 | TCTCTTAAGT | 0.989 ± 0.012
8 | TCTCTTTTTA | 1.02 ± 0.023
9 | TCTGAAGATT | 0.999 ± 0.016
10 | TCTGAAGGTG | 1.28 ± 0.22
11 | TCTGATTTGT | 1.01 ± 0.013
12 | TCTGCCATTT | 1.44 ± 0.63
13 | TCTGCCTTTT | 1.05 ± 0.074
14 | TCTGGAGCCG | 1.04 ± 0.022
15 | TCTGGAGGGG | 1.022 ± 0.0073
16 | TCTGGCGCCG | 1.03 ± 0.017
17 | TCTGGGAGAA | 0.992 ± 0.042
18 | TCTGGGGAAT | 1 ± 0.035
19 | TCTGGGGGAG | 0.977 ± 0.029
20 | TCTGGGGTTA | 1 ± 0.018
21 | TCTGGGTGCC | 1.02 ± 0.055
22 | TCTGGTACAG | 0.969 ± 0.02
23 | TCTGGTCCGG | 0.997 ± 0.015
24 | TCTGGTGTGG | 0.994 ± 0.053
25 | TCTGGTTGAG | 1.02 ± 0.019

Row | Sequence | switch fluorescence ratio
26 | TCTGTAAATT | 0.991 ± 0.03
27 | TCTGTAGGTT | 1.03 ± 0.024
28 | TCTGTATTCG | 1.005 ± 0.0033
29 | TCTGTATTTG | 0.981 ± 0.028
30 | TCTGTGTAGC | 1 ± 0.027
31 | TCTGTTAATT | 1.01 ± 0.014
32 | TCTTACAATT | 0.971 ± 0.036
33 | TCTTAGATGA | 0.9765 ± 0.003
34 | TCTTATATTT | 0.9977 ± 0.0021
35 | TCTTATGGAA | 1.04 ± 0.047
36 | TCTTATTTGG | 1.01 ± 0.05
37 | TCTTCTAA | 0.9972 ± 0.0047
38 | TCTTGAACGT | 0.978 ± 0.018
39 | TCTTGATTAT | 0.9795 ± 0.0085
40 | TCTTGGAGCT | 1.01 ± 0.019
41 | TCTTGGCGCC | 0.97579 ± 0.00051
42 | TCTTGGGGG | 1.05 ± 0.012
43 | TCTTGGGGGA | 0.996 ± 0.031
44 | TCTTGGTCGT | 0.9677 ± 0.0051
45 | TCTTGTAATC | 1.07 ± 0.055
46 | TCTTGTATTC | 0.9938 ± 0.0094
47 | TCTTTACCGA | 1.02 ± 0.036
48 | TCTTTACGGT | 1.04 ± 0.045
49 | TCTTTACTAC | 1.08 ± 0.081
50 | TCTTTATAAA | 1.02 ± 0.038

Row | Sequence | switch fluorescence ratio
51 | TCTTTCCTTC | 1.04 ± 0.12
52 | TCTTTCTTTT | 1.03 ± 0.027
53 | TCTTTGCAGC | 1.025 ± 0.0041
54 | TCTTTGCCGT | 0.982 ± 0.021
55 | TCTTTGGTTT | 1.17 ± 0.25
56 | TCTTTTAGGC | 1 ± 0.036
57 | TCTTTTCGTT | 1 ± 0.011
58 | TCTTTTGGAT | 0.994 ± 0.019
59 | TCTTTTTCCT | 1.045 ± 0.0054
60 | TCTTTTTCTT | 1.01 ± 0.033
61 | TCTTTTTGCA | 1.03 ± 0.014
62 | TCTTTTTGGC | 1.01 ± 0.034
63 | TGAAAAAAAG | 0.973 ± 0.04
64 | TGAAAAACAC | 1.12 ± 0.17
65 | TGAAAATACC | 1.011 ± 0.01
66 | TGAAAATGCG | 1.01 ± 0.057
67 | TGAAAATTAG | 0.9688 ± 0.0049
68 | TGAAAATTCA | 1.05 ± 0.077
69 | TGAAAATTCC | 1.12 ± 0.073
70 | TGAAACAGGT | 1.001 ± 0.0032
71 | TGAAACGGAA | 1.15 ± 0.079
72 | TGAAAGTGCT | 0.973 ± 0.02
73 | TGAAATAGGG | 1.0312 ± 0.00097
74 | TGAAATATCA | 1.0208 ± 0.00019
75 | TGAAATCCGA | 1 ± 0.027

Row | Sequence | switch fluorescence ratio
76 | TGAAATTTAA | 1 ± 0.0065
77 | TGAAATTTAG | 1.01 ± 0.047
78 | TGAAATTTG | 1.01 ± 0.03
79 | TGAACAAGAT | 1.01 ± 0.022
80 | TGAACAGGGG | 0.9869 ± 0.0078
81 | TGAACGAGGG | 1.01 ± 0.022
82 | TGAACGGATC | 1.03 ± 0.008
83 | TGAACGTCCA | 1.09 ± 0.015
84 | TGAACGTTTT | 1.04 ± 0.029
85 | TGAACTAGTA | 0.9828 ± 0.0046
86 | TGAAGATGGG | 1 ± 0.019
87 | TGAAGATTTA | 1.03 ± 0.017
88 | TGAAGCAGGG | 1.13 ± 0.018
89 | TGAAGCATTT | 1.17 ± 0.14
90 | TGAAGGAGTG | 0.955 ± 0.038
91 | TGAAGGATTT | 1.01 ± 0.034
92 | TGAAGGGGCC | 2.74 ± 2.5
93 | TGAAGGGGGA | 0.995 ± 0.041
94 | TGAAGTGAAT | 1.01 ± 0.011
95 | TGAAGTTGG | 1.01 ± 0.019
96 | TGAATAATCT | 1.055 ± 0.004
97 | TGAATAGGGC | 0.9882 ± 0.0097
98 | TGAATATTAA | 0.985 ± 0.025
99 | TGAATGAATA | 1.027 ± 0.0085
100 | TGAATGAATT | 0.997 ± 0.022
